Source: the supplement of paper PMC10567573

B1: CFHR2 (parent)
chain: FVENGHSESSGQTHLEGDTVQIIC
B2: TRAF3IP2 (parent)
chain: KQGSMNFRFIPVLFPNAKKEHVPT

Variants of: B1
Assay: protein stability index of a GFP-peptide fusion (GPS, HEK-293T) (PSI 1-6); higher = more stable
Details: c terminus: a fixed tail appended
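Also: lentivirally expressed fusions sorted by FACS into six bins by GFP to DsRed ratio, PSI derived from sequencing read proportions per bin multiplied by bin number.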

| Variant | protein stability index |
| --- | --- |
| N4C | 1.98 |
| N4L | 1.76 |
| N4M | 1.8 |
| N4R | 2.05 |
| N4S | 2.4 |
| N4I | 2.13 |
| N4D | 3.92 |
| N4K | 3.03 |
| N4H | 2.62 |
| N4A | 2.42 |
| N4Q | 2.81 |
| N4E | 3.47 |
| N4Y | 2.37 |
| N4P | 2.53 |
| N4V | 2.18 |
| N4W | 2.8 |
| N4T | 2.51 |
| N4G | 2.59 |
| N4F | 1.83 |
| F1I | 4 |
| F1Y | 2.69 |
| F1K | 4.2 |
| F1M | 4.23 |
| F1D | 4.7 |

| Variant | protein stability index |
| --- | --- |
| F1C | 3.73 |
| F1H | 4.43 |
| F1V | 3.92 |
| F1L | 3.89 |
| F1P | 4.61 |
| F1A | 4.27 |
| F1Q | 4.37 |
| F1E | 4.95 |
| F1R | 3.83 |
| F1N | 4.1 |
| F1G | 4.33 |
| F1T | 3.96 |
| F1W | 3.86 |
| F1S | 4.14 |
| G5M | 2.28 |
| G5K | 2.64 |
| G5C | 2.03 |
| G5E | 4.09 |
| G5H | 2.49 |
| G5D | 3.64 |
| G5S | 3.01 |
| G5P | 2.27 |
| G5I | 2.2 |
| G5Y | 3.09 |

| Variant | protein stability index |
| --- | --- |
| G5A | 2.77 |
| G5F | 2.55 |
| G5W | 3.48 |
| G5L | 2.77 |
| G5N | 3.23 |
| G5Q | 2.57 |
| G5T | 2.97 |
| G5V | 2.87 |
| G5R | 1.82 |
| V2A | 4 |
| V2T | 3.94 |
| V2W | 3.35 |
| V2D | 4.19 |
| V2N | 4.16 |
| V2K | 4.01 |
| V2R | 3.96 |
| V2E | 4.54 |
| V2L | 3.59 |
| V2S | 4.18 |
| V2H | 3.82 |
| V2P | 3.88 |
| V2Q | 3.81 |
| V2M | 3.12 |
| V2C | 4 |

| Variant | protein stability index |
| --- | --- |
| V2I | 3.72 |
| V2F | 3.62 |
| V2G | 3.62 |
| V2Y | 3.44 |
| H6M | 2.32 |
| H6G | 3.12 |
| H6R | 2.85 |
| H6W | 2.7 |
| H6V | 2.74 |
| H6Q | 2.37 |
| H6A | 3.02 |
| H6P | 3.18 |
| H6L | 2.19 |
| H6F | 2.29 |
| H6S | 2.92 |
| H6I | 2.57 |
| H6D | 3.87 |
| H6C | 2.28 |
| H6N | 3.52 |
| H6T | 2.79 |
| H6K | 3.33 |
| H6E | 3.65 |
| H6Y | 1.93 |
| E3G | 2.83 |

| Variant | protein stability index |
| --- | --- |
| E3M | 1.5 |
| E3D | 1.74 |
| E3P | 2.38 |
| E3R | 1.67 |
| E3W | 1.56 |
| E3F | 2.04 |
| E3V | 1.54 |
| E3S | 2.12 |
| E3T | 2.23 |
| E3L | 1.81 |
| E3I | 1.94 |
| E3Q | 1.83 |
| E3K | 1.78 |
| E3N | 1.92 |
| E3H | 2.08 |
| E3C | 1.38 |
| E3Y | 1.98 |
| E3A | 2.11 |
| S7C | 2.34 |
| S7A | 2.72 |

Variants of: B2
Assay: as above
Details: c terminus: a fixed tail appended

| Variant | protein stability index |
| --- | --- |
| P23E | 2.19 |
| P23I | 1.77 |
| P23D | 2.29 |
| P23W | 2.58 |
| P23R | 2.05 |
| P23Q | 1.69 |
| P23N | 1.86 |
| P23H | 1.83 |
| P23K | 2 |
| P23Y | 1.84 |
| P23G | 2.15 |
| P23F | 1.79 |
| P23T | 2.27 |
| P23A | 1.82 |
| P23M | 1.78 |
| P23S | 1.88 |
| P23L | 2.16 |
| P23C | 1.96 |
| P23V | 1.4 |
| E20I | 2.19 |
| E20V | 2.26 |
| E20K | 1.68 |
| E20G | 2.24 |
| E20Y | 1.77 |
| E20W | 1.9 |

| Variant | protein stability index |
| --- | --- |
| E20T | 2.05 |
| E20P | 2.12 |
| E20D | 2.33 |
| E20F | 1.93 |
| E20M | 2.3 |
| E20H | 2.03 |
| E20Q | 2.02 |
| E20L | 1.67 |
| E20S | 1.73 |
| E20R | 1.65 |
| E20A | 2.11 |
| E20N | 2.15 |
| E20C | 1.85 |
| A17L | 1.89 |
| A17I | 1.8 |
| A17V | 1.61 |
| A17E | 2.47 |
| A17G | 2.18 |
| A17W | 1.74 |
| A17R | 2 |
| A17T | 2.86 |
| A17K | 1.82 |
| A17Y | 1.72 |
| A17D | 2.32 |
| A17C | 1.97 |

| Variant | protein stability index |
| --- | --- |
| A17F | 1.64 |
| A17N | 2 |
| A17H | 1.92 |
| A17P | 2.07 |
| A17S | 2.21 |
| A17Q | 2.38 |
| A17M | 2.08 |
| T24I | 1.7 |
| T24D | 2.16 |
| T24L | 1.67 |
| T24W | 2.06 |
| T24M | 1.87 |
| T24Q | 1.92 |
| T24V | 1.76 |
| T24N | 1.97 |
| T24A | 2.25 |
| T24F | 1.75 |
| T24Y | 2.5 |
| T24C | 1.94 |
| T24S | 1.65 |
| T24G | 2.14 |
| T24P | 2.14 |
| T24E | 2.35 |
| T24H | 1.89 |
| T24K | 2.19 |

| Variant | protein stability index |
| --- | --- |
| T24R | 2.33 |
| P15E | 2.14 |
| P15S | 1.75 |
| P15L | 2.43 |
| P15G | 1.49 |
| P15W | 2.67 |
| P15Q | 1.41 |
| P15R | 1.92 |
| P15V | 2.56 |
| P15I | 2.17 |
| P15C | 1.7 |
| P15N | 1.87 |
| P15F | 2.2 |
| P15Y | 2.04 |
| P15T | 2.54 |
| P15H | 1.87 |
| P15K | 1.52 |
| P15A | 1.66 |
| P15D | 2.05 |
| P15M | 1.58 |
| N16Q | 1.75 |
| N16T | 1.7 |
| N16V | 1.55 |
| N16Y | 1.8 |
| N16G | 2.08 |

| Variant | protein stability index |
| --- | --- |
| N16A | 1.75 |
| N16I | 2.29 |
| N16K | 1.72 |
| N16C | 1.89 |
| N16E | 1.85 |
| N16F | 1.63 |
| N16L | 1.66 |
| N16P | 1.92 |
| N16M | 1.88 |
| N16R | 2.59 |
| N16S | 2.33 |
| N16H | 1.66 |
| N16D | 1.58 |
| N16W | 2 |
| K19E | 1.99 |
| K19S | 1.98 |
| K19N | 1.7 |
| K19I | 1.59 |
| K19H | 2.34 |
| K19G | 1.95 |
| K19T | 1.75 |
| K19A | 1.66 |
| K19V | 1.65 |
| K19C | 1.7 |
| K19W | 1.65 |

| Variant | protein stability index |
| --- | --- |
| K19Y | 1.99 |
| K19D | 2.13 |
| K19R | 1.59 |
| K19P | 1.6 |
| K19F | 1.98 |
| K19Q | 1.84 |
| K19L | 1.78 |
| K19M | 1.59 |
| K18P | 1.77 |
| K18G | 2.04 |
| K18R | 1.6 |
| K18C | 1.71 |
| K18T | 1.85 |
| K18I | 2.27 |
| K18E | 2.15 |
| K18N | 1.93 |
| K18L | 1.61 |
| K18F | 1.77 |
| K18W | 1.65 |
| K18A | 1.76 |
| K18Y | 1.84 |
| K18Q | 1.77 |
| K18M | 1.76 |
| K18S | 1.71 |
| K18V | 1.65 |

| Variant | protein stability index |
| --- | --- |
| K18H | 1.89 |
| K18D | 2.34 |
| V22A | 2.22 |
| V22T | 2.38 |
| V22G | 2.4 |
| V22N | 2.23 |
| V22E | 2.19 |
| V22Y | 1.91 |
| V22C | 2 |
| V22I | 2.11 |
| V22H | 1.73 |
| V22R | 1.99 |
| V22L | 2.09 |
| V22D | 2.89 |
| V22P | 1.82 |
| V22S | 3 |
| V22K | 2.61 |
| V22W | 1.6 |
| V22M | 2.24 |
| V22Q | 1.96 |
| V22F | 2.16 |
| F14V | 2.3 |
| F14T | 2.76 |
| F14S | 2.42 |
| F14W | 2.46 |

| Variant | protein stability index |
| --- | --- |
| F14I | 1.36 |
| F14Y | 1.95 |
| F14A | 1.88 |
| F14M | 2.56 |
| F14D | 2.77 |
| F14K | 2.62 |
| F14P | 2.71 |
| F14N | 2.06 |
| F14R | 1.8 |
| F14E | 3.19 |
| F14L | 1.68 |
| F14C | 1.87 |
| F14H | 2.12 |
| F14G | 2.29 |
| F14Q | 2.71 |
| H21C | 2.02 |
| H21D | 2.06 |
| H21A | 2.19 |
| H21V | 1.94 |
| H21Y | 1.82 |
| H21W | 1.81 |
| H21T | 2.15 |
| H21S | 2.07 |
| H21P | 2.14 |
| H21M | 2.13 |

| Variant | protein stability index |
| --- | --- |
| H21Q | 1.78 |
| H21K | 1.77 |
| H21R | 1.72 |
| H21N | 2.21 |
| H21F | 1.66 |
| H21G | 2.3 |
| H21L | 2.23 |
| H21I | 1.59 |
| H21E | 2.47 |
| L13T | 1.86 |
| L13S | 2.14 |
| L13N | 2.28 |
| L13Y | 1.82 |
| L13R | 1.93 |
| L13P | 1.87 |
| L13V | 2.01 |
| L13Q | 2.02 |
| L13W | 2.09 |
